Data from publication PMC4259358, “Functional Characterization of Nuclear Localization and Export Signals in Hepatitis C Virus Proteins and Their Role in the Membranous Web” (PLoS ONE, 2014).

Tests used:
Assay in all cases: ELISA; plates coated with synthetic peptide (10 µg/ml, carbonate buffer pH 9.6); increasing concentrations of recombinant NTF, 2 h, room temperature; anti-HIS detection; apparent Kd
[1] = target: SV40 NLS synthetic peptide (fused to penetratin) (SV40 | not stated)
[2] = target: NS5A NLS synthetic peptide (fused to penetratin) (hepatitis C virus | not stated)
[3] = target: Core NLS 4 synthetic peptide (fused to penetratin) (hepatitis C virus | not stated)
[4] = target: NS3 NLS 2 synthetic peptide (fused to penetratin) (hepatitis C virus | not stated)

“recombinant IPOA5 (importin α5/kap α1), P52294 1-538 (natural protein; other documents disagree on this pair)” was tested, and the Kd [1] was 27.1 nM, the Kd [2] was 7630 nM and the Kd [3] was 518 nM. For the same substance, the Kd [4] was 36.6 nM.
